Measured values as given in US20260209386A1 (MYTHIC THERAPEUTICS, published 2026).

T1: Human PTK7 Protein, His Tag, Acro Biosystems (human, UniProt Q13308 31-704)
T1 construct: Bought recombinant protein; also called CCK4; not shown: His tag
T1 sequence: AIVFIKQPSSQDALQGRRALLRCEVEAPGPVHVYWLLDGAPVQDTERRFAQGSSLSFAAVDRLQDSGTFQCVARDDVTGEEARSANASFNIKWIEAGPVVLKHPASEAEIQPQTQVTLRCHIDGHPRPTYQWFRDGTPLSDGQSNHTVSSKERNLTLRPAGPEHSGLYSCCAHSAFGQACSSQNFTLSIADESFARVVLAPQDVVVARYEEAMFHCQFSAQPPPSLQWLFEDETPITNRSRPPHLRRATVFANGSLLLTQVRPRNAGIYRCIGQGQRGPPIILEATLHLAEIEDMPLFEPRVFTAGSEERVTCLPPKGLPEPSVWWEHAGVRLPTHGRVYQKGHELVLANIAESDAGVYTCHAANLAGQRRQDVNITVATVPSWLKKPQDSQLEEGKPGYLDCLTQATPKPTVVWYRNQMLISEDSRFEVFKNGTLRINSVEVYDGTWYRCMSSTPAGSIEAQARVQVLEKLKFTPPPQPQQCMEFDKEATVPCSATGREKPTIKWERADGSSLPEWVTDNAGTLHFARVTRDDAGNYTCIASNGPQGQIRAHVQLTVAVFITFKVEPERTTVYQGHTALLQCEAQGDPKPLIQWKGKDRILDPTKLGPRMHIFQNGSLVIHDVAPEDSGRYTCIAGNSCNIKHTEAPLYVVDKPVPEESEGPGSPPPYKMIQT

T2: Human PTK7 Protein, His Tag, Acro Biosystems (human, UniProt Q13308 31-704)
T2 construct: Bought protein; also called CCK4; not shown: His tag
T2 sequence: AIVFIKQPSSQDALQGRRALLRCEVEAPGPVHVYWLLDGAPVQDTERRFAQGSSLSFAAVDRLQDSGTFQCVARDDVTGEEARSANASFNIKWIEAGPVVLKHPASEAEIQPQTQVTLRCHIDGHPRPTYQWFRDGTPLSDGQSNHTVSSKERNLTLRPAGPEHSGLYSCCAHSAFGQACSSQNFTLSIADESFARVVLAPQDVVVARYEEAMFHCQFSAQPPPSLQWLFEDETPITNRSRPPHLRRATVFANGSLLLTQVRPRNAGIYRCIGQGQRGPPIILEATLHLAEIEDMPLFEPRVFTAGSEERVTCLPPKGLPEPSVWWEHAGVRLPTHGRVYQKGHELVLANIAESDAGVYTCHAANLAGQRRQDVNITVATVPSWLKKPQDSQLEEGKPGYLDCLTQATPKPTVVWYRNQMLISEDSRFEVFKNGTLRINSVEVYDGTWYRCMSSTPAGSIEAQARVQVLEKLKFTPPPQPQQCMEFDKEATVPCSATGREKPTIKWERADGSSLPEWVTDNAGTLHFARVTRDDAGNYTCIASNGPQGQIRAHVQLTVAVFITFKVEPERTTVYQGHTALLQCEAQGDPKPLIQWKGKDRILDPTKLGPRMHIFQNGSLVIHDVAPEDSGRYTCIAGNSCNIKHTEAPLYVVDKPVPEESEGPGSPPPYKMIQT


Legend:
[1] = target: T1, Human PTK7 Protein, His Tag, Acro …; test: BLI, anti-human Fc capture, 50 nM PTK7; 2 = substantially similar binding relative to parent
[2] = target: T2, Human PTK7 Protein, His Tag, Acro …; test: BLI (Octet), antibody on anti-human Fc sensor, 50 nM PTK7, dissociation at pH 7.4 or 5.4; 2 = substantially similar binding relative to parent

Binder	binding result [1]	binding result [2]
MYT11317 (antibody, V domains shown, MYT9792 variant, His at VL 52 (L2 01)) VH: EVQLVESGGGLVQPGGSLRLSCTASGIDLSRYSMGWVRQAPGKGLEWVGIISYGGSTYYASWAKGRFTISRDTSKNTVYLQMNSLRAEDTAVYFCARVGYPGYSGYGYAFDAFDPWGQGTLVTVSS VL: EIVMTQSPSTLSASVGDRVIITCQSSKSVYNDNWLSWYQQKPGKAPKLLIYHASTLASGVPSRFSGSGSGAEFTLTISSLQPDDFATYYCAGGYSSSSDNGFGQGTKLTVL	binds	–
MYT11334 (antibody, V domains shown, MYT9792 variant, His at VL 101 (L3 11)) VH: EVQLVESGGGLVQPGGSLRLSCTASGIDLSRYSMGWVRQAPGKGLEWVGIISYGGSTYYASWAKGRFTISRDTSKNTVYLQMNSLRAEDTAVYFCARVGYPGYSGYGYAFDAFDPWGQGTLVTVSS VL: EIVMTQSPSTLSASVGDRVIITCQSSKSVYNDNWLSWYQQKPGKAPKLLIYGASTLASGVPSRFSGSGSGAEFTLTISSLQPDDFATYYCAGGYSSSSDNHFGQGTKLTVL	binds	–
MYT11318 (antibody, V domains shown, MYT9792 variant, His at VL 53 (L2 02)) VH: EVQLVESGGGLVQPGGSLRLSCTASGIDLSRYSMGWVRQAPGKGLEWVGIISYGGSTYYASWAKGRFTISRDTSKNTVYLQMNSLRAEDTAVYFCARVGYPGYSGYGYAFDAFDPWGQGTLVTVSS VL: EIVMTQSPSTLSASVGDRVIITCQSSKSVYNDNWLSWYQQKPGKAPKLLIYGHSTLASGVPSRFSGSGSGAEFTLTISSLQPDDFATYYCAGGYSSSSDNGFGQGTKLTVL	binds	–
MYT11329 (antibody, V domains shown, MYT9792 variant, His at VL 96 (L3 06)) VH: EVQLVESGGGLVQPGGSLRLSCTASGIDLSRYSMGWVRQAPGKGLEWVGIISYGGSTYYASWAKGRFTISRDTSKNTVYLQMNSLRAEDTAVYFCARVGYPGYSGYGYAFDAFDPWGQGTLVTVSS VL: EIVMTQSPSTLSASVGDRVIITCQSSKSVYNDNWLSWYQQKPGKAPKLLIYGASTLASGVPSRFSGSGSGAEFTLTISSLQPDDFATYYCAGGYSHSSDNGFGQGTKLTVL	binds	–
MYT11338 (antibody, V domains shown, MYT9792 variant, Ala at VL 100 (L3 10)) VH: EVQLVESGGGLVQPGGSLRLSCTASGIDLSRYSMGWVRQAPGKGLEWVGIISYGGSTYYASWAKGRFTISRDTSKNTVYLQMNSLRAEDTAVYFCARVGYPGYSGYGYAFDAFDPWGQGTLVTVSS VL: EIVMTQSPSTLSASVGDRVIITCQSSKSVYNDNWLSWYQQKPGKAPKLLIYGASTLASGVPSRFSGSGSGAEFTLTISSLQPDDFATYYCAGGYSSSSDAGFGQGTKLTVL	binds	–
MYT11319 (antibody, V domains shown, MYT9792 variant, His at VL 54 (L2 03)) VH: EVQLVESGGGLVQPGGSLRLSCTASGIDLSRYSMGWVRQAPGKGLEWVGIISYGGSTYYASWAKGRFTISRDTSKNTVYLQMNSLRAEDTAVYFCARVGYPGYSGYGYAFDAFDPWGQGTLVTVSS VL: EIVMTQSPSTLSASVGDRVIITCQSSKSVYNDNWLSWYQQKPGKAPKLLIYGAHTLASGVPSRFSGSGSGAEFTLTISSLQPDDFATYYCAGGYSSSSDNGFGQGTKLTVL	binds	–
MYT11323 (antibody, V domains shown, MYT9792 variant, His at VL 58 (L2 07)) VH: EVQLVESGGGLVQPGGSLRLSCTASGIDLSRYSMGWVRQAPGKGLEWVGIISYGGSTYYASWAKGRFTISRDTSKNTVYLQMNSLRAEDTAVYFCARVGYPGYSGYGYAFDAFDPWGQGTLVTVSS VL: EIVMTQSPSTLSASVGDRVIITCQSSKSVYNDNWLSWYQQKPGKAPKLLIYGASTLAHGVPSRFSGSGSGAEFTLTISSLQPDDFATYYCAGGYSSSSDNGFGQGTKLTVL	binds	–
MYT11320 (antibody, V domains shown, MYT9792 variant, His at VL 55 (L2 04)) VH: EVQLVESGGGLVQPGGSLRLSCTASGIDLSRYSMGWVRQAPGKGLEWVGIISYGGSTYYASWAKGRFTISRDTSKNTVYLQMNSLRAEDTAVYFCARVGYPGYSGYGYAFDAFDPWGQGTLVTVSS VL: EIVMTQSPSTLSASVGDRVIITCQSSKSVYNDNWLSWYQQKPGKAPKLLIYGASHLASGVPSRFSGSGSGAEFTLTISSLQPDDFATYYCAGGYSSSSDNGFGQGTKLTVL	binds	–
MYT11336 (antibody, V domains shown, MYT9792 variant, Ala at VL 32 (L1 09)) VH: EVQLVESGGGLVQPGGSLRLSCTASGIDLSRYSMGWVRQAPGKGLEWVGIISYGGSTYYASWAKGRFTISRDTSKNTVYLQMNSLRAEDTAVYFCARVGYPGYSGYGYAFDAFDPWGQGTLVTVSS VL: EIVMTQSPSTLSASVGDRVIITCQSSKSVYNANWLSWYQQKPGKAPKLLIYGASTLASGVPSRFSGSGSGAEFTLTISSLQPDDFATYYCAGGYSSSSDNGFGQGTKLTVL	binds	–
MYT11181 (antibody, V domains shown, HC variant of MYT9460, sub at HCV pos 27 (H1 02)) VH: EVQLVESGGGLVQPGGSLRLSCTASGHDLSSYVMGWVRQAPGKGLEWVGYIYGGGGTYYATWARGRFTISRDTSKNTVYLQMNSLRAEDTAVYFCARAAADFYFNLWGQGTLVTVSS VL: EIVMTQSPSTLSASVGDRVIITCQASQSISSYLAWYQQKPGKAPKLLIYDISDLASGVPSRFSGSGSGAEFTLTISSLQPDDFATYYCQSYYWISNSGAAFGQGTKLTVL	–	binds
MYT11200 (antibody, V domains shown, HC variant of MYT9460, sub at HCV pos 60 (H2 11)) VH: EVQLVESGGGLVQPGGSLRLSCTASGIDLSSYVMGWVRQAPGKGLEWVGYIYGGGGTYYHTWARGRFTISRDTSKNTVYLQMNSLRAEDTAVYFCARAAADFYFNLWGQGTLVTVSS VL: EIVMTQSPSTLSASVGDRVIITCQASQSISSYLAWYQQKPGKAPKLLIYDISDLASGVPSRFSGSGSGAEFTLTISSLQPDDFATYYCQSYYWISNSGAAFGQGTKLTVL	–	binds
MYT11186 (antibody, V domains shown, HC variant of MYT9460, sub at HCV pos 32 (H1 07)) VH: EVQLVESGGGLVQPGGSLRLSCTASGIDLSSHVMGWVRQAPGKGLEWVGYIYGGGGTYYATWARGRFTISRDTSKNTVYLQMNSLRAEDTAVYFCARAAADFYFNLWGQGTLVTVSS VL: EIVMTQSPSTLSASVGDRVIITCQASQSISSYLAWYQQKPGKAPKLLIYDISDLASGVPSRFSGSGSGAEFTLTISSLQPDDFATYYCQSYYWISNSGAAFGQGTKLTVL	–	binds

More lines, now with the values ahead:

binding result [1]	binding result [2]	Binder
–	binds	MYT11185 (antibody, V domains shown, HC variant of MYT9460, sub at HCV pos 31 (H1 06)) VH: EVQLVESGGGLVQPGGSLRLSCTASGIDLSHYVMGWVRQAPGKGLEWVGYIYGGGGTYYATWARGRFTISRDTSKNTVYLQMNSLRAEDTAVYFCARAAADFYFNLWGQGTLVTVSS VL: EIVMTQSPSTLSASVGDRVIITCQASQSISSYLAWYQQKPGKAPKLLIYDISDLASGVPSRFSGSGSGAEFTLTISSLQPDDFATYYCQSYYWISNSGAAFGQGTKLTVL
–	binds	MYT11183 (antibody, V domains shown, HC variant of MYT9460, sub at HCV pos 29 (H1 04)) VH: EVQLVESGGGLVQPGGSLRLSCTASGIDHSSYVMGWVRQAPGKGLEWVGYIYGGGGTYYATWARGRFTISRDTSKNTVYLQMNSLRAEDTAVYFCARAAADFYFNLWGQGTLVTVSS VL: EIVMTQSPSTLSASVGDRVIITCQASQSISSYLAWYQQKPGKAPKLLIYDISDLASGVPSRFSGSGSGAEFTLTISSLQPDDFATYYCQSYYWISNSGAAFGQGTKLTVL
–	binds	MYT11198 (antibody, V domains shown, HC variant of MYT9460, sub at HCV pos 58 (H2 09)) VH: EVQLVESGGGLVQPGGSLRLSCTASGIDLSSYVMGWVRQAPGKGLEWVGYIYGGGGTHYATWARGRFTISRDTSKNTVYLQMNSLRAEDTAVYFCARAAADFYFNLWGQGTLVTVSS VL: EIVMTQSPSTLSASVGDRVIITCQASQSISSYLAWYQQKPGKAPKLLIYDISDLASGVPSRFSGSGSGAEFTLTISSLQPDDFATYYCQSYYWISNSGAAFGQGTKLTVL
–	binds	MYT11187 (antibody, V domains shown, HC variant of MYT9460, sub at HCV pos 33 (H1 08)) VH: EVQLVESGGGLVQPGGSLRLSCTASGIDLSSYHMGWVRQAPGKGLEWVGYIYGGGGTYYATWARGRFTISRDTSKNTVYLQMNSLRAEDTAVYFCARAAADFYFNLWGQGTLVTVSS VL: EIVMTQSPSTLSASVGDRVIITCQASQSISSYLAWYQQKPGKAPKLLIYDISDLASGVPSRFSGSGSGAEFTLTISSLQPDDFATYYCQSYYWISNSGAAFGQGTKLTVL
–	binds	MYT11188 (antibody, V domains shown, HC variant of MYT9460, sub at HCV pos 34 (H1 09)) VH: EVQLVESGGGLVQPGGSLRLSCTASGIDLSSYVHGWVRQAPGKGLEWVGYIYGGGGTYYATWARGRFTISRDTSKNTVYLQMNSLRAEDTAVYFCARAAADFYFNLWGQGTLVTVSS VL: EIVMTQSPSTLSASVGDRVIITCQASQSISSYLAWYQQKPGKAPKLLIYDISDLASGVPSRFSGSGSGAEFTLTISSLQPDDFATYYCQSYYWISNSGAAFGQGTKLTVL
–	binds	MYT11199 (antibody, V domains shown, HC variant of MYT9460, sub at HCV pos 59 (H2 10)) VH: EVQLVESGGGLVQPGGSLRLSCTASGIDLSSYVMGWVRQAPGKGLEWVGYIYGGGGTYHATWARGRFTISRDTSKNTVYLQMNSLRAEDTAVYFCARAAADFYFNLWGQGTLVTVSS VL: EIVMTQSPSTLSASVGDRVIITCQASQSISSYLAWYQQKPGKAPKLLIYDISDLASGVPSRFSGSGSGAEFTLTISSLQPDDFATYYCQSYYWISNSGAAFGQGTKLTVL
